Reference: patent US10400249B2, “HPPD variants and methods of use” (priority 2014, dated 2019)
Numbering of substitutions follows the chain as printed. In names and notes the source's numbering stands.

B1: FLP136: PfHPPD variant P215L, E335P, G336F (protein)
chain: MADLYENPMGLMGFEFIEFASPTPGTLEPIFEIMGFTKVATHRSKNVHLYRQGEINLILNNEPNSIASYFAAEHGPSVCGMAFRVKDSQKAYNRALELGAQPIHIDTGPMELNLPAIKGIGGAPLYLIDRFGEGSSIYDIDFVYLEGVERNPVGAGLKVIDHLTHNVYRGRMVYWANFYEKLFNFREARYFDIKGEYTGLTSKAMSAPDGMIRILLNEESSKGAGQIEEFLMQFNGEGIQHVAFLTDDLVKTWDALKKIGMRFMTAPPDTYYEMLEGRLPDHGEPVDQLQARGILLDGSSVEGDKRLLLQIFSETLMGPVFFEFIQRKGDDGFGPFNFKALFESIERDQVRRGVLTAD
modifications: HPPD variant - FLP136
notes: PfHPPD variant P215L, E335P, G336F
B2: FLP202: PfHPPD variant P215L, E335P, G336F, A340E (protein)
chain: B1 chain with A340E
modifications: HPPD variant - FLP202
notes: PfHPPD variant P215L, E335P, G336F, A340E

Assays:
[1] = tested on: Pseudomonas fluorescens HPPD protein; experiment: OD assay: HPPD activity and pI50 from HPP remaining after derivatisation with DNP; format: biochemical; conditions: for Activity DeltaE/24 min μg Protein: HPPD enzyme activity of the clone; for tolerance (pI50) Cmpd. 2: inhibitor Cmpd. 2; for tolerance (pI50) DKN: inhibitor diketonitrile (DKN), negative log of molar concentration; for tolerance (pI50) MST: inhibitor mesotrione (MST); for tolerance (pI50) TBT: inhibitor tembotrione (TBT)
Outline: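 pI50 values for Pseudomonas fluorescens HPPD come from two room-temperature formats. The coupled HGD assay continuously follows maleylacetoacetate at 318 nm (pH 7.6 Tris, 600 μM HPP, FeSO4, ascorbate, catalase, inhibitor up to 100 μM) and classifies inhibition type from time-dependence. The endpoint OD assay measures unconsumed 0.5 mM HPP after 24 min via DNP hydrazone at 405 nm (pH 7.8), testing 5.0×10^−6–5.0×10^−4 M inhibitor.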

T0 soybean plants = experiment: greenhouse spray test of T0 soybean plants for tolerance to mesotrione; format: in vivo; conditions: mesotrione 3X field rate, 316 grams AI per hectare, seven days after treatment
Protocol: T0 soybean plants expressing an HPPD inhibitor tolerant enzyme of the present invention, along with a gene conferring tolerance to glyphosate and a gene conferring tolerance to glufosinate or having a “plant expression cassette”, which includes only an HPPD inhibitor tolerant enzyme of the present invention, were tested for tolerance to mesotrione. Prior greenhouse trials with the transgenic plants, soy transformants were routinely analyzed for the expression and presence of the transgenes using the ELISA protein detection method (see detailed description under item D and H). Only plants recovering in the selection media and having a detectable HPPD transgene protein expression were used for the herbicide tolerance analysis. A DeVries Tracker Sprayer was calibrated prior to each spraying. The chemical formulation used for mesotrione (MST) testing was Callisto® 4 SC formulation supplemented with ammonium sulfate and methylated rape seed oil (Actirob). Spray tests were conducted using 3× the field rate (equivalent to 9 fluid ounce per acre of the same herbicide formulation that containing 40% the active ingredient (AI), mesotrione), which equals 316 grams AI per hectare. Tolerance was evaluated one week after spraying. […] A tolerance rating of “0” was assigned to plants that their shoot apexes, newly emerged trifoliates and some axillary buds were completely bleached. A rating of “1” was assigned to plants having slight tolerance, i.e., the newest plant shoot tissues had some green leaves and are not bleached completely. A rating of “2” was assigned to plants showing moderate tolerance, i.e., more than 50% of the leaf area of the top three trifoliates showing no chlorosis or bleaching damage. A rating of “3” was assigned to plants showing nearly perfect tolerance, i.e., less than 10% of the leaf area showing chlorosis or very slight bleaching.

[2] = HT-single plant expression cassette
[3] = HT-triple plant expression cassette

Row | Molecule | Activity DeltaE/24 min μg Protein [1] | tolerance (pI50) Cmpd. 2 [1] | tolerance (pI50) DKN [1] | tolerance (pI50) MST [1] | tolerance (pI50) TBT [1] | Number of T0 soybean plants with herbicide tolerance rating 0 (completely bleached) (T0 soybean plants; [2]) | Number of T0 soybean plants with herbicide tolerance rating 1 (slight tolerance) (T0 soybean plants; [2]) | Number of T0 soybean plants with herbicide tolerance rating 2 (moderate tolerance) (T0 soybean plants; [2]) | Number of T0 soybean plants with herbicide tolerance rating 3 (nearly perfect tolerance) (T0 soybean plants; [2]) | Number of T0 soybean plants with herbicide tolerance rating 0 (completely bleached) (T0 soybean plants; [3]) | Number of T0 soybean plants with herbicide tolerance rating 1 (slight tolerance) (T0 soybean plants; [3]) | Number of T0 soybean plants with herbicide tolerance rating 2 (moderate tolerance) (T0 soybean plants; [3]) | Number of T0 soybean plants with herbicide tolerance rating 3 (nearly perfect tolerance) (T0 soybean plants; [3])
1 | B1 | 0.09 DeltaE/24 min μg Protein | 4.8 | 2.6 | 3.3 | 4.7 | 4 | 10 | 41 | 20 | 4 | 17 | 33 | 19
2 | B2 | 0.09 DeltaE/24 min μg Protein | 4.5 | <2.5 | <2.5 | 3.6 | 2 | 21 | 37 | 18 | 7 | 8 | 10 | 14
